{
  "source": "paper PMC9564178",
  "about": "(Cells, 2022)",
  "binders": {"B1": {"name": "human recombinant TPPP3 (hexaHis fusion) (natural protein)", "chain": "AGLEESFRKFAIHGDPKASGQEMNGKNWAKLCKDCKVADGKSVTGTDVDIVFSKVKGKSARVINYEEFKKALEELATKRFKGKSKEEAFDAICQLVAGKEPANVGVTKAKTGGAVDRLTDTSRYTGSHKERFDESGKGKGIAGRQDILDDSGYVSAYKNAGTYDAKVKK", "notes": "human TPPP3 (Tubulin Polymerization Promoting Protein 3), UniProtKB Q9BW30, 176 amino acids; probably the whole 176-residue protein; also called TPPP/p20; source: E. coli BL21 (DE3), isolated on a HIS-Select Cartridge"}},
  "key": {"[1]": {"target": "T1, human recombinant TPPP1 (hexaHis fusion) (human, UniProt O94811 1-219)", "T1 construct": "human TPPP1 (Tubulin Polymerization Promoting Protein, TPPP/p25), UniProtKB O94811, 219 amino acids; probably the whole 219-residue protein; also called TPPP/p25; source: E. coli BL21 (DE3), isolated on a HIS-Select Cartridge", "T1 sequence (O94811 whole entry, the tested form may be a part)": "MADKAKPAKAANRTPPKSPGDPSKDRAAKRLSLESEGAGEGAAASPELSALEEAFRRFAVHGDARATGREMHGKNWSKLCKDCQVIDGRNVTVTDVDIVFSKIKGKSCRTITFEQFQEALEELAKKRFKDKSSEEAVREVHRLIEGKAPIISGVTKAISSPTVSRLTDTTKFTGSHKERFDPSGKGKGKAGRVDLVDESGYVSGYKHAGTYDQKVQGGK", "test": "ELISA; TPPP3 immobilised; recombinant TPPP1 added at different concentrations with extract of non-transfected HeLa cells (0.32 mg/mL); detected by monoclonal TPPP1 antibody; apparent Kd", "conditions": "both partners purified"}, "[2]": {"target": "T1, human recombinant TPPP1 (hexaHis fusion)", "test": "ELISA; TPPP3 immobilised (5 μg/mL, PBS); recombinant TPPP1 added at different concentrations, without HeLa extract; detected by monoclonal TPPP1 antibody; apparent Kd, single-site hyperbola", "conditions": "both partners purified"}},
  "data": [
    {"binder": "B1", "values": [
      {"measurement": "Kd", "setting": "[1]", "value": 47.7, "unit": "nM"},
      {"measurement": "Kd", "setting": "[2]", "value": 6.53, "unit": "nM"}
    ]}
  ]
}
